Assay results taken from patent US7488598B2, “Mutant purine nucleoside phosphorylase proteins and cellular delivery thereof” (priority 2001, dated 2009).
Where a chain is given by its changes, count along the chain named. In names and notes the source's numbering stands. Several values for one entry are separate records, joined by “and”; a condition that tells them apart may be missing. Equal values may be shown once.

Columns and labels:
[1] = biological target: E. coli PNP mutant M65A (Escherichia coli, UniProt P0ABP8, M65A)
[2] = biological target: wild-type E. coli PNP (Escherichia coli, UniProt P0ABP8); settings: Table III; 100 μM substrate; HPLC; average of separate experiments
[3] = biological target: E. coli PNP mutant M65V (Escherichia coli, UniProt P0ABP8, M65V); settings: for M65V percent of wild-type activity: Table II, relative to wild-type PNP of the same line; for M65V, crude extract, rate of cleavage / M65V, pure enzyme, rate of cleavage: Table III, 100 μM substrate, HPLC, average of separate experiments
[4] = tested on: human cells in culture
[5] = in vivo, 3 days
[6] = tested on: tumor expressing wild-type enzyme; assay: Anti-tumor response of tumors expressing wild-type enzyme; assay type: in vivo
[7] = tested on: Clostridium perfringens; assay type: biochemical
[8] = tested on: Nc1ncnc2c1ncn2[C@@H]1O[C@@H](CO)[C@@H](O)[C@H]1O; assay: purified protein, by the assay type; settings: other: wild-type enzyme
[9] = tested on: Cc1ncnc2c1ncn2[C@H]1C[C@H](O)[C@@H](CO)O1; assay: purified protein, by the assay type; settings: other: wild-type enzyme
[10] = tested on: Cc1ncnc2c1ncn2[C@@H]1O[C@H]([C@H](C)O)[C@@H](O)[C@H]1O; assay: purified protein, by the assay type; settings: other: wild-type enzyme
[11] = E. coli PNP enzyme activity with substrate allo-met; settings: Table IV, 0 denotes no measurable activity
[12] = E. coli PNP enzyme activity with substrate allo-acet; settings: Table IV, 0 denotes no measurable activity
[13] = E. coli PNP enzyme activity with substrate 5′-NH2; settings: Table IV, 0 denotes no measurable activity
[14] = E. coli PNP enzyme activity with substrate F-araA; settings: percent of wild-type activity
[15] = E. coli PNP enzyme activity with substrate MeP-dR; settings: for Activity, MeP-dR: Table IV, 0 denotes no measurable activity; for Activity, MeP-dR / Percent of Control Activity, MeP-dR: substrate MeP-dR; for Percent of Control Activity, MeP-dR: percent of wild-type activity
[16] = E. coli PNP enzyme activity with substrate 5′-S-phenyl; settings: Table IV, 0 denotes no measurable activity
[17] = E. coli PNP enzyme activity with substrate talo-acet; settings: Table IV, 0 denotes no measurable activity
[18] = E. coli PNP enzyme activity with substrate α-L-lyxo; settings: Table IV, 0 denotes no measurable activity
[19] = E. coli PNP enzyme activity with substrate talo-met; settings: Table IV, 0 denotes no measurable activity
[20] = E. coli PNP enzyme activity with substrate 5′CONH2; settings: Table IV, 0 denotes no measurable activity

NC[C@H]1O[C@@H](n2cnc3c(N)ncnc32)[C@H](O)[C@@H]1O [5′-amino-5′-deoxy-Ado, 5′-amino-5′-deoxyadenosine]
M65A percent of wild-type activity ([1]; Table II, relative to wild-type PNP of the same line): (5%) | Wild type, pure enzyme, rate of cleavage [2]: 539 nmol/mg/h | M65V percent of wild-type activity [3]: (94%) | M65V, crude extract, rate of cleavage [3]: 930 nmol/mg/h

Cc1ncnc2c1ncn2[C@@H]1O[C@H]([C@H](C)O)[C@@H](O)[C@H]1O [5′-methyl(talo)MeP-R, 9-(6-deoxy-α-L-talofuranosyl)-6-methylpurine]
less toxic to human cells in culture than F-araA [4]: over 40 fold | Wild type, pure enzyme, rate of cleavage [2]: 915 nmol/mg/h | human dosage determined from mouse tolerated dose [5]: 600 mg/m^2 | activity of mutant M65V PNP compared with wild-type PNP (in words) ([3]; Example 16 analysis): more activity | Activity of M65V mutant greater than wild-type PNP ([3]; M65V versus wild-type PNP): 38 fold | M65V, crude extract, rate of cleavage [3]: 75,000 nmole/mg/hr | M65V, pure enzyme, rate of cleavage [3]: 76,000 nmole/mg/hr | M65V cleavage of substrate relative to wild-type enzyme cleavage of F-araA ([3]; compared with wild-type enzyme cleaving F-araA): 80 times

C#C[C@H](O)[C@H]1O[C@@H](n2cnc3c(C)ncnc32)[C@H](O)[C@@H]1O [9-(6,7-dideoxy-α-L-hept-6-ynofuranosyl)-6-methylpurine]
activity of mutant M65A compared with wild-type enzyme (in words) ([1]; Example 16 analysis): more activity

Nc1nc(F)nc2c1ncn2[C@@H]1O[C@H](CO)[C@@H](O)[C@@H]1O [F-araA, 9-(β-D-arabinofuranosyl)-2-fluoroadenine]
Wild type, pure enzyme, rate of cleavage [2]: 1,250 nmole/mg/hr | M65V, crude extract, rate of cleavage [3]: 904 nmol/mg/h | tumor response [6]: complete responses

Cc1ncnc2c1ncn2[C@H]1C[C@H](O)[C@@H](CO)O1 [MeP-dR, 9-(2-deoxy-β-D-ribofuranosyl)-6-methylpurine]
Wild type, pure enzyme, rate of cleavage [2]: 528,000 nmole/mg/hr | enzyme activity converting MeP-dR to MeP [7]: capable of converting MeP-dR to MeP | M65V percent of wild-type activity [3]: (57%) | M65V, crude extract, rate of cleavage [3]: 535,000 nmole/mg/hr | M65V, pure enzyme, rate of cleavage [3]: 593,000 nmole/mg/hr

wild-type E. coli PNP (Escherichia coli K-12)
Km [8]: 1,370 μM and 1,340 μM | kcat [8]: 0.133 s⁻¹ and 0.383 s⁻¹ | Km [9]: 140 µM and 111 µM | Vmax [9]: 30.2 µmol/min/mg and 18.3 µmol/min/mg | kcat [9]: 12.1 s⁻¹ and 7.33 s⁻¹ | Km [10]: 2,980 μM and 3,000 μM

B1: M65V (protein, listed as Escherichia coli)
chain: MATPHINAEMGDFADVVLMPGDPLRAKYIAETFLEDAREVNNVRGMLGFTGTYKGRKISVMGHGVGIPSCSIYTKELITDFGVKKIIRVGSCGAVLPHVKLRDVVIGMGACTDSKVNRIRFKDHDFAAIADFDMVRNAVDAAKALGIDARVGNLFSADLFYSPDGEMFDVMEKYGILGVEMEAAGIYGVAAEFGAKALTICTVSDHIRTHEQTTAAERQTTFNDMIKIALESVLLGDKE
Activity, allo-met [11]: 320 nmol/mg/h and 163 nmol/mg/h | Activity, allo-acet [12]: 0 nmol/mg/h | Activity, 5′-NH2 [13]: 760 nmol/mg/h and 1150 nmol/mg/h | Percent of Control Activity, F-araA [14]: 37% | Activity, MeP-dR [15]: 524,000 nmoles/mg/hour and 281,000 nmoles/mg/hour | Percent of Control Activity, MeP-dR [15]: 42% | activity toward substrates MeP-dR and F-araA (in words) ([15]; substrates MeP-dR and F-araA, Table I): retained some appreciable level of activity | Activity, 5′-S-phenyl [16]: 0 nmol/mg/h

B2: M65I (protein, UniProt P0ABP8 2-239, looked up, variant M65I)
Purine nucleoside …: ATPHINAEMGDFADVVLMPGDPLRAKYIAETFLEDAREVNNVRGMLGFTGTYKGRKISVMGHGIGIPSCSIYTKELITDFGVKKIIRVGSCGAVLPHVKLRDVVIGMGACTDSKVNRIRFKDHDFAAIADFDMVRNAVDAAKALGIDARVGNLFSADLFYSPDGEMFDVMEKYGILGVEMEAAGIYGVAAEFGAKALTICTVSDHIRTHEQTTAAERQTTFNDMIKIALESVLLGDKE
Activity, talo-acet [17]: 0 nmol/mg/h | Activity, allo-acet [12]: 0 nmol/mg/h | Percent of Control Activity, F-araA [14]: 0.15% | Percent of Control Activity, MeP-dR [15]: 0.02%

B3: D205N (protein, UniProt P0ABP8 2-239, looked up, variant D205N)
Purine nucleoside …: B2 Purine nucleoside … with I64M, D204N
Percent of Control Activity, F-araA [14]: 2.4% | Percent of Control Activity, MeP-dR [15]: 2.2%

B4: M65Q (protein, UniProt P0ABP8 2-239, looked up, variant M65Q)
Purine nucleoside …: B2 Purine nucleoside … with I64Q
Activity, talo-acet [17]: 0 nmol/mg/h | Activity, allo-acet [12]: 0 nmol/mg/h | Activity, 5′-NH2 [13]: 26 nmol/mg/h and 42 nmol/mg/h | Percent of Control Activity, F-araA [14]: 1.0% | Activity, MeP-dR [15]: 6050 nmol/mg/h and 4210 nmol/mg/h | Percent of Control Activity, MeP-dR [15]: 0.6%

B5: D205A (protein, UniProt P0ABP8 2-239, looked up, variant D205A)
Purine nucleoside …: B2 Purine nucleoside … with I64M, D204A
Percent of Control Activity, F-araA [14]: 1.1% | Percent of Control Activity, MeP-dR [15]: 1.0%

B6: M65A (protein, UniProt P0ABP8 2-239, looked up, variant M65A)
Purine nucleoside …: B2 Purine nucleoside … with I64A
Activity, allo-acet [12]: 0 nmol/mg/h | Percent of Control Activity, F-araA [14]: 1.6% | Activity, α-L-lyxo [18]: 1,500 nmoles/mg/hour and 1,070 nmoles/mg/hour | Activity, MeP-dR [15]: 12,000 nmoles/mg/hour and 9,400 nmoles/mg/hour | Percent of Control Activity, MeP-dR [15]: 1.5%

B7: M181E (protein, UniProt P0ABP8 2-239, looked up, variant M181E)
Purine nucleoside …: B2 Purine nucleoside … with I64M, M180E
Percent of Control Activity, F-araA [14]: 0.1% | Percent of Control Activity, MeP-dR [15]: 0.04%

B8: Wild-type: wild-type E. coli purine nucleoside phosphorylase (PNP) (protein, UniProt P0ABP8 2-239, looked up)
Purine nucleoside …: B2 Purine nucleoside … with I64M
Activity, talo-acet [17]: 0 nmol/mg/h | Activity, allo-acet [12]: 0 nmol/mg/h | Activity, 5′-NH2 ([13]; listed as WT): 960 nmol/mg/h and 1270 nmol/mg/h | Activity, talo-met [19]: 962 nmol/mg/h | Percent of Control Activity, F-araA [14]: 100% | Activity, α-L-lyxo [18]: 4500 nmol/mg/h | Activity, MeP-dR [15]: 740,000 nmoles/mg/hour | Percent of Control Activity, MeP-dR [15]: 100% | Activity, 5′-S-phenyl [16]: 0 nmol/mg/h | Activity, 5′CONH2 [20]: 18 nmol/mg/h

B9: E182Q (protein, UniProt P0ABP8 2-239, looked up, variant E182Q)
Purine nucleoside …: B2 Purine nucleoside … with I64M, E181Q
Percent of Control Activity, F-araA [14]: 1.0% | Percent of Control Activity, MeP-dR [15]: 0.6%

B10: H5N (protein, UniProt P0ABP8 2-239, looked up, variant H5N)
Purine nucleoside …: B2 Purine nucleoside … with H4N, I64M
Activity, talo-acet [17]: 0 nmol/mg/h | Activity, allo-acet [12]: 0 nmol/mg/h | Percent of Control Activity, F-araA [14]: 0.15% | Activity, α-L-lyxo [18]: 16 nmol/mg/h and 11 nmol/mg/h | Percent of Control Activity, MeP-dR [15]: 0.08%

B11: E182V (protein, UniProt P0ABP8 2-239, looked up, variant E182V)
Purine nucleoside …: B2 Purine nucleoside … with I64M, E181V
Percent of Control Activity, F-araA [14]: 0.6% | Percent of Control Activity, MeP-dR [15]: 0.3%

B12: E182A (protein, UniProt P0ABP8 2-239, looked up, variant E182A)
Purine nucleoside …: B2 Purine nucleoside … with I64M, E181A
Percent of Control Activity, F-araA [14]: 0.9% | Percent of Control Activity, MeP-dR [15]: 0.5%
